# Reference: publication PMC5832332 (Nature, 2017)
# Target: the molecule itself
# Assay: crystal structure
protein,measurement,value
"Enterococcus faecalis Cas2 (natural protein, UniProt A0A3N3FLR9 1-109, looked up) MSYRYMRLLLMFDMPTDTASDRKAYRKFRKFLINEGFIMHQFSVYSKILLNDTANKAMLARLKQNNPQRGLITLLNVTEKQFSRMIYLHGEQDNRVANSDERIVFLGEE",stoichiometry N,2
